Assay: yeast display, Sf9 membrane polyspecificity reagent, FACS + sequencing; frameworks hold sequencing errors
Summary of the method: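 Synthetic nanobody libraries on Saccharomyces cerevisiae BJ5465 were galactose-induced for 36–48 hours, stained 1 hour at 4 °C with 10% biotinylated, detergent-solubilized Sf9 membrane reagent and enriched on streptavidin microbeads. FACS then separated cells into low and high (top ~1%) gates by anti-HA (expression) and streptavidin (reagent binding) fluorescence. Genes were colony-PCR amplified, MiSeq 2 × 250 sequenced and CDR-length filtered. A clone's polyreactivity label is that of its gate of origin.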

QVQLVESGGGLVQAGGSLRLSCAASGLTFKSYAMGWYRQAPVKERELVAGISWSGDSTYYADSVKGRFTISRDNAKNTVYLQMNSLKPEDTAVYYCAAEYSYEYDYWGQGTQVTVSS
polyreactivity (PSR sort gate): high polyreactivity

QVQLVESGGGLVQAGGSLRLSCAASGLTFKYYAMGWYRQAPGKERELVAAITATGGLTYYADSEKGRFTISRDNAKKTVYLQMNSLKPEDTAVYYCNARQHQTYYFYKHDYWGQGTQVTVSS
polyreactivity (PSR sort gate): high polyreactivity

QVQLVESGGGLVQAGGSLRLSCAASGLTFKYYAMGWYRQATGKERELVARISRGGNTNYADSVKGRFTISRDNAKNTVYLQMNSLKPEDTAVYYCAATVRVYDYWGQGTQVTVSS
polyreactivity (PSR sort gate): high polyreactivity

QVQLVESGGGLVQAGGSLRLSCAASGLTFLRNGMGLYRQAPGKERELVASITRSGTRTYYADSVKGRFTISRDNAKNSVYLQMNSLKPEDTAVYYCAARAYVSHYGVSNFGFYYWVQGTQVTVSS
polyreactivity (PSR sort gate): high polyreactivity

QVQLVESGGGLVQAGGSLRLSCAASGLTFNHYAMGWYRQAPGKERELVAAISSGSSTDYADSVKGRFTISRDNAKTTVYLQMHSLKPEDTAVYYCAVETPSTWFWGWGYDYDYWGQGTQVTVSS
polyreactivity (PSR sort gate): high polyreactivity

QVQLVESGGGLVQAGGSLRLSCAASGLTFPANVMGWYRQAPGKERELVAAISRSGGTTYYADSVKGRFTISRDNAKNTVYLQMNILKPEDTAVYYCAAYQVSYFGGSMDYWGQGTQVTVSS
polyreactivity (PSR sort gate): high polyreactivity

QVQLVESGGGLVQAGGSLRLSCAASGLTFPGYAMGWYRQAPGKERELVAGISKRGGSTYYADSVKGRFTISRDNAKNTVYLQMNSLKPEDTAVYYCAAVYRSQSQPYDYWGQGTQVTVSS
polyreactivity (PSR sort gate): high polyreactivity

QVQLVESGGGLVQAGGSLRLSCAASGLTFPPNAMGWYRQATGKEREFVAVISSGGGSTYYADSVKVRFTISRDNAKNTVYLQMNSLNPEDTAVYYCATEYQDGETEYYYWGQGTQVTVSS
polyreactivity (PSR sort gate): low polyreactivity

QVQLVESGGGLVQAGGSLRLSCAASGLTFPRYAMGGYRQAPGKERELVAAISYRGGRTYYADSVKGRFTISRDNAKNTVYLQMNSLKPEDTAVYYCNADSIYSARGWLYGYWGQGTQVTVSS
polyreactivity (PSR sort gate): low polyreactivity

QVQLVESGGGLVQAGGSLRLSCAASGLTFPTYAMRWYRQAPGKERELVAAISRIGGRTYYADSVKGRFSISRDNAKNTVYLQMNSLKPEDTAVYYCAADGIKGGVEYDYWGQGTQVTVSS
polyreactivity (PSR sort gate): high polyreactivity

QVQLVESGGGLVQAGGSLRLSCAASGLTFPWYAMGWYRQAPGKERELVASINSSTGSTYYADSVKGRFTISRDNAKNTVYLQMNSLKPEYTAVYYCAAVEYGNMDWGQGTQVTVSS
polyreactivity (PSR sort gate): low polyreactivity

QVQLVESGGGLVQAGGSLRLSCAASGLTFPYYVMGWYRQAPGKERELVAAISSSGGSTYYADSVKGRFTISRDNAKNTVYLQMNSLKPEDTAVYYCNAPYVFSAGFDYWGQGTQVTVSS
polyreactivity (PSR sort gate): low polyreactivity

QVQLVESGGGLVQAGGSLRLSCAASGLTFQSYAMGWYRQAPGKERELVATISNGSSTYYADSVKGRFTISRDNAKNSVYLQMNSLKPEDTAVYYCAKDYYYSRNPLYGHDYWGQGTQVTVSS
polyreactivity (PSR sort gate): low polyreactivity

QVQLVESGGGLVQAGGSLRLSCAASGLTFQYNAMGWYRQAPGKERELVASINSGGSTDYADSVKGRFTISRDNAKNTVYLQMNRLKQEDTAVYYCATSGYWYSASYGYEYWGQGTQVTLSS
polyreactivity (PSR sort gate): low polyreactivity

QVQLVESGGGLVQAGGSLRLSCAASGLTFRRYAMGWYRQAPGKERELVAAINSRGGSTYYADSVKGRFTISRDNAKNTVYLQMNSLKPEDTAVYYCATRSFGRMDYWGQGTQVTVSS
polyreactivity (PSR sort gate): high polyreactivity

QVQLVESGGGLVQAGGSLRLSCAASGLTFRTYTMGWYRQAPGKERELVAAISSSGSTKYADSVKGRFTISRDNAKNTVYLQMICLKPEDTAVYYCAARGRIYFTQYGYWGQVTQVTVSS
polyreactivity (PSR sort gate): high polyreactivity

QVQLVESGGGLVQAGGSLRLSCAASGLTFRVNAMGWYRQAPGKERELVAVISTDGGTTYYADSVKGRFTISRDNAKNTVYLQINSLKPEDTAVYYCAAKYAQVYIWVRQIHFDYWGQGTQVTVSS
polyreactivity (PSR sort gate): low polyreactivity

QVQLVESGGGLVQAGGSLRLSCAASGLTFRVYAMGWYRQAPGKERELVAAISKRGGSTYYADSVKGRFTISRDNAKNTVYLQMNSLKPEDTAVYYCAAEPPPYEYVYWGQGTQVTVSS
polyreactivity (PSR sort gate): high polyreactivity

QVQLVESGGGLVQAGGSLRLSCAASGLTFRYNAMGWYRQAHGKERELVARISRNGGRTYYADSVKGRFTISRDNAKNTVYLQMNSLKPEDSAVYYCNVVYFVTTSPGYDYWGQGTKVTVSS
polyreactivity (PSR sort gate): high polyreactivity

QVQLVESGGGLVQAGGSLRLSCAASGLTFRYYAMGWYRQAPGKERELVAAITASVGSTYYADSVKGRFTISRDNAKNTVYLQMNSLKPEDTAVYYCAAEGTPGPGGGYYWGQGTQVTVSS
polyreactivity (PSR sort gate): low polyreactivity

QVQLVESGGGLVQAGGSLRLSCAASGLTFRYYTMGLYRQAPGKERELVASITSGGITYYADSVKGRFTISRDNAKNTVYLQMYSLKPEDTAVYYCAKGSYRTTYGALGVKYGYWGQGTQVNVSS
polyreactivity (PSR sort gate): high polyreactivity

QVQLVESGGGLVQAGGSLRLSCAASGLTFSDYAMGWYRQAPGKERELVAAITYNGGSTYYADSVKGRFTISRDNAKNTVYLQMNSLKPEDTAVYYCAADTDDVGLRDYWGQGTQVTVSS
polyreactivity (PSR sort gate): low polyreactivity

QVQLVESGGGLVQAGGSLRLSCAASGLTFSDYAMGWYRQATGKEREFVAAITRNGGSTRYADSVKGRFTISRDNAKNTVYLQMNSLKPEDTAVYYCAADWSYEYGYWGQGTQVTVSS
polyreactivity (PSR sort gate): low polyreactivity

QVQLVESGGGLVQAGGSLRLSCAASGLTFSFYAMGWYIPAPGKDTERVAAISSGGGITYYADSVKGRFTISRDNAKNTVYLQMNSLKPEDTALYYCNTDDYYQYWVPSEYYYCGQGTQVTVSS
polyreactivity (PSR sort gate): low polyreactivity

QVQLVESGGGLVQAGGSLRLSCAASGLTFSIYAMGWYRPAPGKERELVAGISQSGGSTYADSVKGRFTISRDNAKNTVYLQMNSLKPEDTAVYYCAKEFEWVGSPSTVDGLEYWGHGTQVTVSS
polyreactivity (PSR sort gate): low polyreactivity

QVQLVESGGGLVQAGGSLRLSCAASGLTFSKYAMGWYRQAPGKERELVAAINRSDGGTYYADSVKGRFTISRDNAKNTVYLQMNSLKPEDTAVYYCNAVVLYGWYGRRYSSRLDYWGQGTQVTVSS
polyreactivity (PSR sort gate): high polyreactivity

QVQLVESGGGLVQAGGSLRLSCAASGLTFSQNAMGWYRQAPGKERELVAAITRSGSTTHYADSVKGRFTISRDNAKNTVYLQMNSLKPEDTAVYYCAAVAFQTRYYYWGQGTQVTVSS
polyreactivity (PSR sort gate): high polyreactivity

QVQLVESGGGLVQAGGSLRLSCAASGLTFSRYAMGWYRQATGKERELVAAITSNGGSTYYADSVKGRFTISRDNAKNTVYLQMNSLKPDDTAVYYCATGYPIDLGREFDYWGQGIQVTVSS
polyreactivity (PSR sort gate): high polyreactivity

QVQLVESGGGLVQAGGSLRLSCAASGLTFSRYARGWYRQAPGKERELVAAISGSGGSTYYADSVKGRFTISRDNAKNTVYLQMNSLKPEDTAVYYCNKYRATNSARDYWGQGTQVTVSS
polyreactivity (PSR sort gate): high polyreactivity

QVQLVESGGGLVQAGGSLRLSCAASGLTFSTNDMGWYRQAPGKEREFVAAISFNGGSTYYADSVKGRFTLSRDNAKNTVYLQMNSLKPEDTAVYYCAAGSDYGLYYGFDFWGQGTQVTVSS
polyreactivity (PSR sort gate): high polyreactivity

QVQLVESGGGLVQAGGSLRLSCAASGLTFSVYAMGWYRQAPGKDRELVAAISGSGGSTYYADSVKGRFTISRDNAKNTVYLQMNSLKPEDTAVYYCAADGRYFRAVFRLYDYWGQGTQVTVSS
polyreactivity (PSR sort gate): low polyreactivity

QVQLVESGGGLVQAGGSLRLSCAASGLTFSYYAMGWSRQAPGKERELVAAISRGGRTNYADSVKGRFTISRDNAKNTVYLQMNSLKPEDTAVYYCAARFVVQGHSSPYDYWGQGTQVTVSS
polyreactivity (PSR sort gate): high polyreactivity

QVQLVESGGGLVQAGGSLRLSCAASGLTFSYYAMGWYRQAPGKERELVAASSWSGGSTYYADSVKGRFTISRDNAKNTVYLQMNSLKPDDTAVYYCAKYPNRHYWYDYWGQGTQVTVSS
polyreactivity (PSR sort gate): low polyreactivity

QVQLVESGGGLVQAGGSLRLSCAASGLTFTPNAMGWYRQAPGKEREFVAAITWRGGRTYYADSVKGRFTISRDNAKNTVYLQMNSLKPEDTAVYYCAADSFKGYDYWGQGTQVTVSS
polyreactivity (PSR sort gate): high polyreactivity

QVQLVESGGGLVQAGGSLRLSCAASGLTFTTYAMGWYRQAPGKERELVAAISRRGSRTYYADSVKGRFTISRDNAKNTVYLQMNSLKPEDTAVYYCARRAGSYPYGYTGYDYWGQGTQVTVSS
polyreactivity (PSR sort gate): high polyreactivity

QVQLVESGGGLVQAGGSLRLSCAASGLTFTYNAMGWYRQAPGKERELVAAISKRGGSTYYADSVKGRFTISRDNAKNTVYLQMNSLKPEDTAVYYCNARTTTRSYPAFDYWGQGTQVTVSS
polyreactivity (PSR sort gate): high polyreactivity

QVQLVESGGGLVQAGGSLRLSCAASGLTFVAYGMGWYRQAPGKERELVATIRWRGGSTYYADSVKGRFTISRDNAKNTVYLQMNSLKPEDTAVYYCAATRARRWSSPGQYGYWGQGTQVTVSS
polyreactivity (PSR sort gate): high polyreactivity

QVQLVESGGGLVQAGGSLRLSCAASGLTFVTYAKGWYRQAPGKERELVAAISYSGGSTYYADSVKGRFTISRDNAKNTVYLQMNSLKPEDTAVYYCNARSPQPDGRPPYNYWGQGTQVTVSS
polyreactivity (PSR sort gate): high polyreactivity

QVQLVESGGGLVQAGGSLRLSCAASGLTFVVYAMGWYRQATGKERELVASITSSGGRTYYADSVKGRFTISRDNAKNTVYLQMTSLKPEDTAVYYCAAVRRRTRYGYRYDYWGQGTQVTVSS
polyreactivity (PSR sort gate): high polyreactivity

QVQLVESGGGLVQAGGSLRLSCAASGLTFVYNAMGWYRQAPGKERELVATISRGGSTYYADSVKGRFTISLDNAMNTVYLQMTSLKPEDTAVYYCNDDGYYDYDYGYWGQGTQVTVSS
polyreactivity (PSR sort gate): low polyreactivity

QVQLVESGGGLVQAGGSLRLSCAASGLTFVYYAMGWYRQAPGKERELVAAISRSGGATYYADSVKGRFTISRDNAKNTVYLQMNSLKPEDTAVYYCAADATKWIGVVTMDYWGQGTQVTVAS
polyreactivity (PSR sort gate): high polyreactivity

QVQLVESGGGLVQAGGSLRLSCAASGLTFVYYAMGWYRQAPGKERELVASISSTGRTYYADSVKGRFTISRDNAKNTVYLQMNSLKPEDTAVYFSAARSTYFKADYWGQGTQVTVSS
polyreactivity (PSR sort gate): high polyreactivity

QVQLVESGGGLVQAGGSLRLSCAASGLTFVYYAMGWYRQAPGKERELVAVISSSGGSTYYADSVKGRFTISRDNAKNTVYLQMNSLKPEDTAVYYCAAPRQVYYQTDNDYWGQGTLVTVSS
polyreactivity (PSR sort gate): high polyreactivity
